Read-outs that look alike come from different tables or passages of the source.
Tests used:
[1] = molecular target: FP-TM(-)-His, His-Tag-added hMPV (JPS02-76) FP lacking the transmembrane region (amino acid residues 491 to 539 of FP) (human metapneumovirus, strain JPS02-76 (type B1)) (UniProt Q6WB98); assay: SPR, Biacore T-200; antibody captured by anti-human IgG, FP-TM(-)-His as analyte
[2] = molecular target: F protein of human metapneumovirus strain JPS03-178 (type A2), on infectious virus (human metapneumovirus, strain JPS03-178 (type A2)); assay: cell-based or functional assay
[3] = molecular target: F protein of human metapneumovirus strain JPS02-76 (type B1), on infectious virus (human metapneumovirus, strain JPS02-76 (type B1)) (UniProt Q6WB98); assay: cell-based or functional assay
[4] = molecular target: F protein of human metapneumovirus strain JPS03-180 (type A1), on infectious virus (human metapneumovirus, strain JPS03-180 (type A1)); assay: cell-based or functional assay
[5] = molecular target: F protein of human metapneumovirus strain JPS05-21 (type B2), on infectious virus (human metapneumovirus, strain JPS05-21 (type B2)); assay: cell-based or functional assay
[6] = molecular target: FP-TM(-)-His, His-Tag-added hMPV (JPS02-76) FP lacking the transmembrane region (amino acid residues 491 to 539 of FP) (human metapneumovirus, strain JPS02-76 (type B1)) (UniProt Q6WB98)

mouse anti-hMPV antibody mAb338
Kd [1]: 532 pM
koff [1]: 0.000228 s⁻¹
kon [1]: 434000 M⁻¹ s⁻¹
IC50, neutralizing activity (hMPV infection of LLC-MK2 cells; GraphPad Prism 6) [2]: 0.18 µg/mL
IC60, neutralizing activity (hMPV infection of LLC-MK2 cells; GraphPad Prism 6) [2]: 0.239 µg/mL
IC90, neutralizing activity (hMPV infection of LLC-MK2 cells; GraphPad Prism 6) [2]: 0.856 µg/mL
IC50, cell-to-cell spread inhibitory activity (LLC-MK2 cells stably expressing TMPRSS2) [3]: 0.0215 µg/mL
IC50, neutralizing activity (hMPV infection of LLC-MK2 cells; GraphPad Prism 6) [3]: 0.281 µg/mL
IC60, neutralizing activity (hMPV infection of LLC-MK2 cells; GraphPad Prism 6) [3]: 0.338 µg/mL
IC90, cell-to-cell spread inhibitory activity (LLC-MK2 cells stably expressing TMPRSS2) [3]: 0.0938 µg/mL
IC90, neutralizing activity (hMPV infection of LLC-MK2 cells; GraphPad Prism 6) [3]: 0.772 µg/mL
IC50, neutralizing activity (hMPV infection of LLC-MK2 cells; GraphPad Prism 6) [4]: 0.125 µg/mL
IC60, neutralizing activity (hMPV infection of LLC-MK2 cells; GraphPad Prism 6) [4]: 0.16 µg/mL
IC90, neutralizing activity (hMPV infection of LLC-MK2 cells; GraphPad Prism 6) [4]: 0.498 µg/mL
IC50, neutralizing activity (hMPV infection of LLC-MK2 cells; GraphPad Prism 6) [5]: 0.221 µg/mL
IC60, neutralizing activity (hMPV infection of LLC-MK2 cells; GraphPad Prism 6) [5]: 0.261 µg/mL
IC90, neutralizing activity (hMPV infection of LLC-MK2 cells; GraphPad Prism 6) [5]: 0.547 µg/mL
Kd [6]: < 10000 pM
